# Patent US6306613, “Modulators of leaderless protein export and methods for identifying and using the same” (Ciblex Corporation, dated 2001)
# B1: neomycin phosphotransferase (NPT) (enzyme)
# chain: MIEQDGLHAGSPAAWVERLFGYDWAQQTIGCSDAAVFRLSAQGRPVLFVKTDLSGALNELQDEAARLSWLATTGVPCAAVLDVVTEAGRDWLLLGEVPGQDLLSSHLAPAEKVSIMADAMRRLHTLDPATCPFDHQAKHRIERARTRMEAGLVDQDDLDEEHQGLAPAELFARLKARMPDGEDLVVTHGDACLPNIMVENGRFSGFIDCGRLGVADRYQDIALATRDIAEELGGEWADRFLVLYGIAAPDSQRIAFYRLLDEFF
# B2: human chorionic gonadotropin α (hCG-α) (ligand)
# chain: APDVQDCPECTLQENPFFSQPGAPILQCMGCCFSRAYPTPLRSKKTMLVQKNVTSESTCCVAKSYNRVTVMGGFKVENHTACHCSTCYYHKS
# Assays:
# [1] = biological target: T1, rat Na+/K+ ATPase α1 subunit (rat, UniProt P06685); test: co-immunoprecipitation from co-transfected COS cells (FIGS. 7-9)
# [2] = biological target: T1, rat Na+/K+ ATPase α1 subunit; test: co-immunoprecipitation from co-transfected COS cells with anti-Na+/K+ ATPase α1 or anti-hCG antibody (FIG. 6)
Binder,binding result [1],binding result [2]
B1,no binding,–
B2,–,no binding
